Data from patent US20220251154A1 (HANGZHOU SUMGEN BIOTECH, published 2022).

Legend:
PD-L1-Fc = target: T1, PD-L1-Fc (UniProt Q9NZQ7 19-239, limits assumed); experiment: competition ELISA: PD-L1-Fc coated, Biotin-Fc-PD1 (1 ug/ml) added with the binder; blocks PD-1/PD-L1
T1 construct: not shown: Fc part

[1] = target: T2, biotin-labeled CD47 (Biotin-Fc-CD47) (UniProt Q08722 19-139, limits assumed, biotin-labeled (site not stated)); experiment: competition ELISA: SIRPα-His coated, Biotin-Fc-CD47 (2 ug/ml) pre-incubated with the binder; blocks CD47/SIRPα
T2 construct: not shown: Fc part
T2 sequence (Q08722 19-139 limits assumed): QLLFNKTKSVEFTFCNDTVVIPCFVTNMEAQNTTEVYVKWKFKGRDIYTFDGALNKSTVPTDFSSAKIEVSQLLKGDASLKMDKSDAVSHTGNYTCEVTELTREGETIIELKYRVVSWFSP

T1 sequence (Q9NZQ7 19-239 limits assumed): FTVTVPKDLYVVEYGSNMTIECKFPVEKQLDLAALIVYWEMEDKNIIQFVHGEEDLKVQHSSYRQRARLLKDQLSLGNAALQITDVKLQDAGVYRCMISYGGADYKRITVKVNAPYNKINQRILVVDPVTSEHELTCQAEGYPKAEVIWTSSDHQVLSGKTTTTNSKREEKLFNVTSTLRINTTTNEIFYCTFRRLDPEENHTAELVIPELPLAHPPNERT

B1: fusion protein SG12474 (bispecific antibody, human IgG1, kappa, N297A)
heavy: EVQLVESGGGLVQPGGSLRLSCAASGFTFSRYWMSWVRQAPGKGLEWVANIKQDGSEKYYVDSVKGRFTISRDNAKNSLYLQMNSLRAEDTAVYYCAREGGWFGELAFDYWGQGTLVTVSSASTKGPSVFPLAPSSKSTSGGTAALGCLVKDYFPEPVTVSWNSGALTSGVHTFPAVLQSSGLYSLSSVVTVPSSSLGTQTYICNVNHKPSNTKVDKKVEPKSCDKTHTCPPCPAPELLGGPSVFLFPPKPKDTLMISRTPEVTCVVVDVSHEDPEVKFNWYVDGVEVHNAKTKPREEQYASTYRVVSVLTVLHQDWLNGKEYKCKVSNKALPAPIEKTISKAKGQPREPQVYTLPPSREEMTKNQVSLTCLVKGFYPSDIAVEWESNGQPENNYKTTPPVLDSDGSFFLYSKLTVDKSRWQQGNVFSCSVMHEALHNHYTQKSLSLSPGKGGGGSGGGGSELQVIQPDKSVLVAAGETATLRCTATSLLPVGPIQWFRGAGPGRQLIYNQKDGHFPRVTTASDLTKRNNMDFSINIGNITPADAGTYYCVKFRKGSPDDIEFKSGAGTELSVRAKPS
light: EIVLTQSPGTLSLSPGERATLSCRASQRVSSSYLAWYQQKPGQAPRLLIYDASSRATGIPDRFSGSGSGTDFTLTISRLEPEDFAVYYCQQYGSLPWTFGQGTKVEIKRTVAAPSVFIFPPSDEQLKSGTASVVCLLNNFYPREAKVQWKVDNALQSGNSQESVTEQDSKDSTYSLSSTLTLSKADYEKHKVYACEVTHQGLSSPVTKSFNRGEC
notes: First polypeptide chain is the SG1202 light chain
IC50 (PD-L1-Fc): 9.12 nM
IC50 [1]: 0.77 nM
